Article PMC7371201

How the values were obtained:
[1] = target: NbDBCP-T (amino acids 1–414 of NbDBCP) (Nicotiana benthamiana); assay: SEC; NbDBCP-T alone; approximate molecular weight by gel filtration chromatography
[2] = target: NbGlk1(83–402) (N. benthamiana (from the prefix Nb)); assay: SEC; purified recombinant proteins run alone and after co-incubation; peak fractions visualised by SDS-PAGE
[3] = system: NbGlk1(83-402) (Nicotiana benthamiana); assay: fluorescence anisotropy; conditions: DNA annealed in 150 mM NaCl, 15 mM Na citrate, binding buffer, pH and temperature not given in the material

Substance	stoichiometry N [1]	left:right ratio of NbDBCP within the 12-mL elution volume (densitometry; 1.37 for NbDBCP-T alone) [2]	Kd ([3]; NbGlk1 alone) [nM]	Kd ([3]; with NbDBCP-T (1-414)) [nM]
NbDBCP-T (amino acids 1–414 of NbDBCP) (domain or fragment)	2	1.6		
CGGATATCCACGGATATCCACGGATATCCACGGATATCCACGGATATCCC (double strand) [FA-5/FA-6 concatenated GGATATCC GLK site duplex]			110	160
